Experimental data reported in publication PMC3895837.
pKd: −log10 of the molar value.

Target: T1, Siglec-5 (Sialic acid-binding Ig-like lectin 5) (human (NB4 AML cell line)) (UniProt O15389)
T1 sequence: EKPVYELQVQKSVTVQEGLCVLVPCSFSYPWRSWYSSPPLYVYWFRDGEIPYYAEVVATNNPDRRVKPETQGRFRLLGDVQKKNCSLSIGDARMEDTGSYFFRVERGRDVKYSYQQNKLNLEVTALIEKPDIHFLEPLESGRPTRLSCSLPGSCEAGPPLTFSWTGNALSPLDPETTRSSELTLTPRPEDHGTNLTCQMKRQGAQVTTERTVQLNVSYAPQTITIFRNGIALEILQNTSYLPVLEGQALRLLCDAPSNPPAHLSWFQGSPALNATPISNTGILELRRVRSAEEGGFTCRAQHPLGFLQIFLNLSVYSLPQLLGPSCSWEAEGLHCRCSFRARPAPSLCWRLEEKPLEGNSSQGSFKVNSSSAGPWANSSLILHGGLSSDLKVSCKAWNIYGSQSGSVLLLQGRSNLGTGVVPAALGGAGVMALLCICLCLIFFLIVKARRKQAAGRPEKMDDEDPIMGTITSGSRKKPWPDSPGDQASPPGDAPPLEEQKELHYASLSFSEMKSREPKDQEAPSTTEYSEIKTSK
Experiment: flow cytometry on NB4 cells
Settings: PBS with 4.5 g/L glucose, 5 mM MgCl2, 0.1 mg/ml yeast tRNA, 1 mg/ml BSA (0.1% NaN3 for flow cytometry), on ice 30 min; pH not stated; JH6 and JH19 (whole-cell …)

GACGCTTACTCAGGTGTGACTCGAAGGGGTTGGGTGGGTTTATACAAATTAATTAATATTGTATGGTATATTTCGAAGGACGCAGATGAAGTCTC [K19]
pKd: 7.91
